# IntAct's records for PubMed 11520064
# B1: Frizzled-8 (Mus musculus), Q61091 (parent)
# chain: MEWGYLLEVTSLLAALAVLQRSSGAAAASAKELACQEITVPLCKGIGYNYTYMPNQFNHDTQDEAGLEVHQFWPLVEIQCSPDLKFFLCSMYTPICLEDYKKPLPPCRSVCERAKAGCAPLMRQYGFAWPDRMRCDRLPEQGNPDTLCMDYNRTDLTTAAPSPPRRLPPPPPPGEQPPSGSGHSRPPGARPPHRGGSSRGSGDAAAAPPSRGGKARPPGGGAAPCEPGCQCRAPMVSVSSERHPLYNRVKTGQIANCALPCHNPFFSQDERAFTVFWIGLWSVLCFVSTFATVSTFLIDMERFKYPERPIIFLSACYLFVSVGYLVRLVAGHEKVACSGGAPGAGGAGGAGGAAAAGAGAAGAGASSPGARGEYEELGAVEQHVRYETTGPALCTVVFLLVYFFGMASSIWWVILSLTWFLAAGMKWGNEAIAGYSQYFHLAAWLVPSVKSIAVLALSSVDGDPVAGICYVGNQSLDNLRGFVLAPLVIYLFIGTMFLLAGFVSLFRIRSVIKQQGGPTKTHKLEKLMIRLGLFTVLYTVPAAVVVACLFYEQHNRPRWEATHNCPCLRDLQPDQARRPDYAVFMLKYFMCLVVGITSGVWVWSGKTLESWRALCTRCCWASKGAAVGAGAGGSGPGGSGPGPGGGGGHGGGGGSLYSDVSTGLTWRSGTASSVSYPKQMPLSQV
# Variants of: B1
# Details: with gopc_mouse Gopc
row,Variant,effect of a mutation on the interaction
1,V685A,disrupting interaction
